Results published in patent US20250145722A1 (TRUEBINDING, published 2025).

B1: TB001 (antibody, IgG4, V domains shown)
VH: QVQLVQSGSELKKPGASVKVSCKASGYTFTNYGMNWVRQAPGQGLKWMGWINTNTGEPTYVEEFTGRFVFSLETSVSTAYLQISSLKAEDTAVYFCAPYDNFFAYWGQGTTVTVSS
VL: DIVLTQSPLSLPVTPGEPASISCRSSKSLLYKDGKTYLNWFLQKPGQSPQLLIYLMSTHASGVPDRFSGSGSGTDFTLKISRVEAEDVGVYYCQQLVDYPLTFGGGTKLEIKR
notes: also called IMT001; IMT001-4
B2: TB006 (antibody, V domains shown)
VH: QVQLVQSGAEVKKPGASVKVSCKASGYSFTNYYMHWVRQAPGQRLEWMGWIYPGSGNTNYNEKFQGRVTITADTSASTAYMELSSLRSEDTAVYYCSTAPGGFDVWGQGTTVTVSS
VL: DIVMTQTPLSLSVTPGQPASISCKSSKSLLHSDGITYLYWYLQKPGQSPQLLIYRMSNLASGVPDRFSGSGSGTDFTLKISRVEAEDVGVYYCAQMLEFPLTFGQGTKLEIKR
notes: Humanized variant derived from murine 4A11.2B5; also called 4A11.H3L1; IMT006
B3: 19B5.2E6 (antibody, mouse IgG2a, V domains shown)
VH: QIQLVQSGPELKKPGETVKISCKASGYTFTTYAMSWVKQAPGKGLKWMGWINTYSGVPTYADDLKGRFAFSLETSASTAYLQINNLKNEDTATYFCARGPYAMDYWGQGTSVTVSS
VL: DIQMTQTTSSLSASLGDRVTISCSASQGINNYLNWYQQKPDGTVKLLIYYASSLHSGVPSRFSGSGSGTDYSLTISNLEPEDIATYYCQQYSQVPYTFGSGTKLEIKR
B4: mTB001 (antibody, mouse IgG2a, V domains shown)
VH: QIQLVQSGPELKKPGETVKISCKASGYTFTNYGMNWVKQAPGKGLKWMGWINTNTGEPTYVEEFKGRFAFSLETSASTAYLQINNLKNEDTATYFCAPYDNFFAYWGQGTLVTVSA
VL: DIVITQDELSNPVTSGESVSISCRSSKSLLYKDGKTYLNWFLQRPGQSPQLLIYLMSTHASGVSDRFSGSGSGTDFTLEISRVKAEDVGVYYCQQLVDYPLTFGAGTKLELKR
notes: also called mIMT001; murine IMT001
B5: recombinant human TREM2 protein (Sino Biological, 11084-H08H) (receptor, UniProt Q9NZC2 19-174, looked up)
chain: HNTTVFQGVAGQSLQVSCPYDSMKHWGRRKAWCRQLGEKGPCQRVVSTHNLWLLSFLRRWNGSTAITDDTLGGTLTITLRNLQPHDAGLYQCQSLHGSEADTLRKVLVEVLADPLDHRDAGDLWFPGESESFEDAHVEHSISRSLLEGEIPFPPTS
notes: Detected with anti-6x His tag antibody, so His-tagged; tag not described
B6: F847C.10B9 (antibody, human IgG4 S228P, kappa)
heavy: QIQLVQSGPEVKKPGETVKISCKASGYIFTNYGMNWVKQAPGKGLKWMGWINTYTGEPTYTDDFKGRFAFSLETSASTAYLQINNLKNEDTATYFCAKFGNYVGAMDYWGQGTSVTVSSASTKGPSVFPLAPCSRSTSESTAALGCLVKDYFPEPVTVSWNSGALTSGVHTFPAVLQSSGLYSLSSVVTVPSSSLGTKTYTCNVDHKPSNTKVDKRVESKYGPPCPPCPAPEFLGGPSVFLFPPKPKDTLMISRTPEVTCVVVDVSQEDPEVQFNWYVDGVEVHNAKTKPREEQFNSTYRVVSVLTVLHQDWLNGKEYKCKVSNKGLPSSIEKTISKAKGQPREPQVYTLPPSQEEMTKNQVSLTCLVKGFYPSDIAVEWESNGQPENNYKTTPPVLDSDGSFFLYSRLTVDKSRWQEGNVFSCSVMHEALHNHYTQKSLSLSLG
light: DIRMTQSPSSLSASLGDTITITCHASQNINVWLSWYQQKPGNIPKLLIYKASNLHTGVPSRFSGSGSGTGFTLTISSLQPEDIATYYCQQGQSYPYTFGGGTKLELKRTVAAPSVFIFPPSDEQLKSGTASVVCLLNNFYPREAKVQWKVDNALQSGNSQESVTEQDSKDSTYSLSSTLTLSKADYEKHKVYACEVTHQGLSSPVTKSFNRGEC
notes: also called 847.10B9
B7: F847C.12F12 (antibody, V domains shown)
VH: QIQLVQSGPELKKPGETVKISCKASGYTFTNYGMNWVKQAPGKGLKWMGWINTYTGEPTYVDDFKGRFAFSLETSASTAYLRINNLKNEDTATYFCAKFGNYVGAMDYWGQGTSVTVSS
VL: DIQVIQSPSSLSASLGDTITITCHASQNINVWLSWYQQKPGNIPKLLIYKASNLHTGVPSRFSGSGSGTGFTLTISSLQPEDIATYYCQQGQSYPYTFGGGTKLELKR
notes: also called 84712F12
B8: F847C.11B1 (antibody, human IgG4 S228P, kappa, V domains shown)
VH: EVQLQQSGPELVKPGASVKISCKASGNTFTDHNMHWVKQSHGKSLEWIGYIYPYNGGTGYNQKFKSKATLTVDNSSSTVYMELRSLTSEDSAVYYCARGEYDYLAWFAYWGQGTLVTVSA
VL: EIVLTQSPASLSVTTGEKVTIRCITSIDIDDDMNWYQQKPGEPPKLLISEGNTLRPGVPSRFSSSGYGTDFVFTIENTLSEDVADYYCLQSDNKPLTFGAGTKLELKR
notes: also called 847.11B1
B9: 15G7.2A7 (antibody, human IgG4 S228P, kappa, V domains shown)
VH: EVQLQQSGPELVKPGASVKISCKASGYTFTDYYMNWVKQSHGKSLEWIGDINPNNGGTNYNQKFKGKATLTVDKSSSTAYMELRSLTSEDSAVYYCTSGYGFPYWGQGTLVTVSA
VL: DIQMNQSPSSLSASLGDTISITCRASQNINIWLSWYQQKPGNIPQLLIYKASNLHTGVPSRFSGSGSGTDFTLTISSLQPEDIATYYCLQGQSYPLTFGAGTKLVMKR
notes: also called 15FG7.2A7
B10: 13G4.2F8 (antibody, human IgG4 S228P, kappa, V domains shown)
VH: QVQLQQPGAELVKPGASVKLSCKASGYTFTSYWMHWVKQRPGQGLEWIGMIHPNSGSTDYNEKFKNKATLNVDKSSSTAYIQLSSLTSEDSAVYYCTRWGIYYYARDYWGQGTTLTVSS
VL: DIVMTQSQKFMSTSVGERVSITCKASQNVGTNVAWYQQKAGQSLELLIYGASNRHTGVPDRFTGSGSGTDFTLTITNVQSEDMTNYFCEQYSNFPLTFGAGTKLELKR
B11: 24D12.2H9 (antibody, human IgG4 S228P, kappa, V domains shown)
VH: QVQLKQSGPGLVQPSQSLSITCTVSGFSLTSYGVHWVRQAPGKGLEWLGVIWSGGSTDYNAAFMSRLSISKDNSKSQVFFKMNSLQADDTAIYYCAKSPDGYDVAWFGYWGQGTLVTVSA
VL: DIVMTQSHKFMSTSVGDRVSITCKASQDVRTAVAWYQQKPGQSPKLLIYWASTRHTGVPDRFTGSGSGTDFTLTLSNVQSEDLADYFCQQYSSYPWTFGGGTKLEIKR
B12: 4G2.2G6 (antibody, human IgG4 S228P, kappa, V domains shown)
VH: QIQLVQSGPDLKKPGETVKISCKASGYTFTTYVMSWVKQAPGKDLKWMGWINTHSGVPTYADDFKGRFDFSLETSANTAFLQINNLKNEDTATYFCTRDGNDGDAMDNWGQGTSVTVSS
VL: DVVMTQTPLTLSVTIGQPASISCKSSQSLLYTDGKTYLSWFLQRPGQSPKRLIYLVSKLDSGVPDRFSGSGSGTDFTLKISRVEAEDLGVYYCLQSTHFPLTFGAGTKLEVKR

Key:
[1] = target: T1, human Galectin-3 (Gal3), full-length recombinant (human, UniProt P17931 2-250); assay: blocking ELISA, Gal3 coated, biotin-Abeta42 oligomer
T1 construct: treated here as one molecule; also called hGAL3; hGal3
T1 sequence (P17931 2-250 limits assumed): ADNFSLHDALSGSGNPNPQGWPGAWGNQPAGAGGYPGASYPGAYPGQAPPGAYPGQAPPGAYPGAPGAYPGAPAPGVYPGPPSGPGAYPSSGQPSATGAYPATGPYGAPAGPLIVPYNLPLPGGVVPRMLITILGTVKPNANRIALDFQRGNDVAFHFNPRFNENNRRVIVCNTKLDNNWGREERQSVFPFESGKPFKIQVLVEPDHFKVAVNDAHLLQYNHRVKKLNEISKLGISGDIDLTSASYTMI

[2] = target: T1, human Galectin-3 (Gal3), full-length …; assay: blocking ELISA, Gal3 coated, biotin-TLR4
[3] = target: T1, human Galectin-3 (Gal3), full-length …; assay: blocking ELISA, Gal3 coated, biotin-APP695
[4] = target: T1, human Galectin-3 (Gal3), full-length …; assay: blocking ELISA, Gal3 coated, biotin-TGFβR2
[5] = target: T1, human Galectin-3 (Gal3), full-length …; assay: cell-based or functional assay
[6] = target: T1, human Galectin-3 (Gal3), full-length …; assay: not stated (FIG. 50)
mouse Gal3 = mouse Gal3 (mouse, UniProt P16110 2-264, limits assumed); assay: not stated (FIG. 50)
Sequence of mouse Gal3 (P16110 2-264 limits assumed): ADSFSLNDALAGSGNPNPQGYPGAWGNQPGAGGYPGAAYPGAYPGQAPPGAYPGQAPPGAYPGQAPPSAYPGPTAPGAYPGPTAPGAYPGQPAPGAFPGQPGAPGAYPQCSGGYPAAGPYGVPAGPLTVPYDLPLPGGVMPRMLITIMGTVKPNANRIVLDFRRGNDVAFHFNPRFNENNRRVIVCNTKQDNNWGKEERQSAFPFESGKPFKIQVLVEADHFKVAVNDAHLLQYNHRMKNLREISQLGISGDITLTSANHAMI

[7] = target: T1, human Galectin-3 (Gal3), full-length …; assay: blocking ELISA, Gal3 coated, biotin-Abeta42 peptide
[8] = target: T1, human Galectin-3 (Gal3), full-length …; assay: blocking ELISA, Gal3 coated, TREM2-His
[9] = target: T1, human Galectin-3 (Gal3), full-length …; assay: titration of the antibody on a panel of galectins, read as OD450; set-up not given, species of the galectins not given
[10] = target: T1, human Galectin-3 (Gal3), full-length …; assay: blocking ELISA, Gal3 coated, biotin-Tau aggregates
[11] = target: T1, human Galectin-3 (Gal3), full-length …; assay: blocking ELISA, Gal3 coated, PDGFR alpha-Fc, antibody 20 µg/ml
[12] = target: T1, human Galectin-3 (Gal3), full-length …; assay: blocking ELISA, Gal3 coated, EGFR-Fc, antibody 20 µg/ml
[13] = target: T1, human Galectin-3 (Gal3), full-length …; assay: blocking ELISA, Gal3 coated, PDGFR beta-Fc, antibody 20 µg/ml
[14] = target: T1, human Galectin-3 (Gal3), full-length …; assay: ELISA: Gal3 coated, His-tagged TREM2 detected with anti-6xHis-HRP; concentrations of the bars not printed on the sheet
[15] = target: T1, human Galectin-3 (Gal3), full-length …; assay: blocking ELISA, Gal3 coated, biotin-α-synuclein aggregates
[16] = target: T1, human Galectin-3 (Gal3), full-length …; assay: not stated. Exponent is printed without a minus sign; value taken as a negative power of ten because the column is a KD in M
[17] = target: T1, human Galectin-3 (Gal3), full-length …; assay: blocking ELISA, Gal3 coated, VEGFR3-Fc, antibody 20 µg/ml

Binder	% blocking of Gal3-Abeta42 oligomer binding [1] [%]	% blocking of Gal3-TLR4 binding [2] [%]	% blocking of Gal3-APP695 binding [3] [%]	% blocking of Gal3-Abeta42 peptide binding [7] [%]	% blocking of Gal3-TREM2 binding [8] [%]	% blocking of Gal3-Tau aggregates binding [10] [%]	% blocking of Gal3-α-synuclein aggregates binding [15] [%]	other results
B1	> 90	> 90	> 90	> 90	> 90	–	–	IC50 [1]: 3.17 nM; IC50 [4]: 12.8 nM; IC50 of TGF-β-induced pro-collagen production in LX-2 cells [5]: 0.25 µg/mL; Kd [6]: 3.6 nM; Kd (mouse Gal3): 2.3 nM; EC50 (read off the curve) [9]: ~0.007 µg/mL
B2	> 90	> 90	> 90	> 90	> 90	> 90	–	IC50 [1]: 2.38 nM; IC50 [4]: 11.5 nM; IC50 of TGF-β-induced pro-collagen production in LX-2 cells [5]: 0.23 µg/mL; Kd [6]: 8.9 nM; Kd (mouse Gal3): 40000 nM
B3	> 90	> 90	> 90	> 90	> 90	–	–	decrease in TGFβ induction of ColA1 mRNA in LX2 cells (qRT-PCR) [5]: 85%
B4	–	–	–	–	–	–	–	% blocking of Gal3-PDGFR alpha binding [11]: > 70%; % blocking of Gal3-EGFR binding [12]: > 70%; % blocking of Gal3-PDGFR beta binding [13]: > 70%; decrease in TGFβ induction of ColA1 mRNA in LX2 cells (qRT-PCR) [5]: 63%
B5	–	–	–	–	–	–	–	binding result [14]: binds
B6	–	–	–	–	–	> 90	> 90	Kd [16]: 13600 nM
B7	–	–	–	–	–	> 90	> 90	Kd [16]: 19.2 nM
B8	< 26	–	–	< 46	< 47	< 50	< 50	Kd [16]: 4.29 nM
B9	–	> 90	> 90	> 90	> 90	> 90	> 90	–
B10	–	–	–	–	–	< 50	< 50	% blocking of Gal3-PDGFR alpha binding [11]: < 30%; % blocking of Gal3-VEGFR3 binding [17]: < 30%; % blocking of Gal3-EGFR binding [12]: < 30%; % blocking of Gal3-PDGFR beta binding [13]: < 30%
B11	–	–	–	–	–	–	–	% blocking of Gal3-PDGFR alpha binding [11]: < 30%; % blocking of Gal3-VEGFR3 binding [17]: < 30%; % blocking of Gal3-EGFR binding [12]: < 30%; % blocking of Gal3-PDGFR beta binding [13]: < 30%
B12	–	–	–	–	–	–	–	% blocking of Gal3-VEGFR3 binding [17]: < 30%
